Test results published in PMC8552062, “Contributions of UDP-Glucuronosyltransferases to Human Hepatic and Intestinal Metabolism of Ticagrelor and Inhibition of UGTs and Cytochrome P450 Enzymes by Ticagrelor and its Glucuronidated Metabolite” (Frontiers in Pharmacology, 2021).

Substrate: CCCSc1nc(N[C@@H]2C[C@H]2c2ccc(F)c(F)c2)c2nnn([C@@H]3C[C@H](OCCO)[C@@H](O)[C@H]3O)c2n1
Experiment: Ticagrelor glucuronidation by recombinant human UGT1A4
Type: in vitro ADME
Conditions: other: recombinant UGT1A4, Michaelis-Menten kinetics; pH 7.4; 37.0 °C
Protocol: Ticagrelor glucuronidation was investigated in an in vitro incubation system by using HLM, HIM, and recombinant human UGTs. The incubation system consisted of enzyme sources (HLM, HIM, or human recombinant UGTs), various concentrations of ticagrelor (dissolved in 50% methanol, 1% v/v, 1, 2, 5, 10, 20, 50, 100, 200, 500 μM of final concentration), alamethicin (50 μg/mg protein), 5 mM MgCl2, 100 mM tris-HCL buffer (pH 7.4), and 5 mM UDPGA in a total volume of 100 μl. Alamethicin is a pore-forming polypeptide used to activate UGTs in HLM and HIM ([Fisher et al., 2000]). Preliminary studies were conducted to determine the optimal protein concentrations and incubation times. Linear conditions of ticagrelor-O-Glu formation from ticagrelor, i.e., HLM, 0.2 mg of protein/ml and 60 min, HIM, 0.2 mg of protein/ml and 60 min, and recombinant human UGTs, 0.2 mg of protein/ml and 60 min were selected. The incubation mixture without UDPGA was placed on ice for 15 min to activate UGT by alamethicin. After pre-incubation for 5 min at 37°C, the reactions were started by the addition of UDPGA. After another 60 min of incubation at 37°C, the reaction was terminated by adding 100 μl of acetonitrile containing internal standard (diazepam). The mixture vortexed for 2 min and then centrifuged at 14,000 rpm for 10 min at 4°C. The resulting supernatant was injected into a liquid chromatography tandem mass spectrometry (LC-MS/MS, Applied Biosystems/MDS Sciex, Foster City, CA) system for the detection of ticagrelor-O-Glu.
Kinetic analyses were performed using the mean values of triplicate determinations with either pooled HLM, HIM, or recombinant human UGTs. All data were analyzed by nonlinear regression analysis using the GraphPad Prism 6 (GraphPad Software Inc., CA, United States). Michaelis-Menten kinetics (Eq. 1) or substrate inhibition kinetics (Eq. 2) ([Houston and Kenworthy, 2000]) were tested to determine the optimal model for describing the data. […] Intrinsic clearance (CLint) was calculated by dividing Vmax by Km.

B1: recombinant human UGT1A4 (Homo sapiens) (protein)
chain: GKVLVVPTDGSPWLSMREALRELHARGHQAVVLTPEVNMHIKEEKFFTLTAYAVPWTQKEFDRVTLGYTQGFFETEHLLKRYSRSMAIMNNVSLALHRCCVELLHNEALIRHLNATSFDVVLTDPVNLCGAVLAKYLSIPAVFFWRYIPCDLDFKGTQCPNPSSYIPKLLTTNSDHMTFLQRVKNMLYPLALSYICHTFSAPYASLASELFQREVSVVDLVSYASVWLFRGDFVMDYPRPIMPNMVFIGGINCANGKPLSQEFEAYINASGEHGIVVFSLGSMVSEIPEKKAMAIADALGKIPQTVLWRYTGTRPSNLANNTILVKWLPQNDLLGHPMTRAFITHAGSHGVYESICNGVPMVMMPLFGDQMDNAKRMETKGAGVTLNVLEMTSEDLENALKAVINDKSYKENIMRLSSLHKDRPVEPLDLAVFWVEFVMRHKGAPHLRPAAHDLTWYQYHSLDVIGFLLAVVLTVAFITFKCCAYGYRKCLGKKGRVKKAHKSKTH
notes: purchased BD Gentest; host or cells: baculovirus-infected insect cells
Protein B1 has a Km of 10.28 µM, a Vmax of 3.6e-07 µmol/min/mg and a Vmax/Km of 0.04 µL/min/mg.
